{"source": "patent US20090061444A1", "about": "(WISCONSIN ALUMNI RESEARCH FOUNDATION, published 2009)", "proteins": {"B1": {"name": "SyB-Cph1 (GAF) chromoprotein assembled with PCB (other)", "chain": "MDTETWAAAARPSRDALINRITHQIRQSLELDQILRATVEEVRAFLGTDRVKVYRFDPEGHGTVVAEARGGERLPSLLGLTFPAGDIPEEARRLFRLAQVRVIVDVEAQSRSISQPESWGLSARVPLGEPLQRPVDPCHVHYLKSMGVASSLVVPLMHHQELWGLLVSHHAEPRPYSQEELQVVQLLADQVSIAIAQAELHHHHHH", "modifications": "phycocyanobilin (PCB) covalently bound at Cys-138", "notes": "It ran as a monomer on SEC, both as Pr and after saturating red light; also called CYB GAF; BG"}}, "target": "the molecule itself", "test": "size exclusion chromatography (Superose 6), non-denaturing; self-association", "method": "Size Exclusion Chromatography. Size exclusion chromatography (SEC) was performed by FPLC using a 24 ml Superose 6 (S6) column (GE Healthcare, Pittsburgh, Pa.). The chromoproteins (100 μl of a 5 mg/ml sample) were first purified through the phenyl HP step, dissolved in 30 mM Tris-HCl (pH 8.0) and 200 mM NaCl, and either loaded onto the column as Pr or immediately following saturating irradiation of the sample with red light (630 nm). Absorption spectra were recorded before and after SEC to verify that the chromoproteins remained enriched in the desired states (Pr or Pfr).\nSEC has shown that most, if not all, Phys are dimeric with their binding interface(s) involving one or more regions, including the GAF domain in DrBphP, the PAS-GAF-PHY domain in Syn-Cph1, and the C-terminal HK and HK-related regions in microbial and higher plants Phys. […] Whereas the GAF domain alone as Pr behaved as a monomer of 22 kDa, consistent with its calculated molecular mass of 23.3 kDa, the GAF-PHY fragment behaved as a dimer species at 105-kDa, nearly twice the size of its calculated mass of 48.4 kDa (FIG. 23). […] The predicted molecular masses of monomeric SyB-Cph1 (GAF) and SyB-Cph1 (GAF-PHY) polypeptides are 23.3 kDa and 48.4 kDa, respectively, while the apparent molecular masses measured by SEC are 22 and 106 kDa, respectively.", "data": [{"protein": "B1", "values": [{"measurement": "binding result", "value": "no binding (tested: 100 µl of a 5 mg/ml sample loaded)"}]}]}
